For assay [1], the target named is T1, human transferrin receptor protein 1 (TfR1) (human, UniProt P02786 1-760).
T1 construct: whole, on cells; Endogenous full-length protein of human cell lines; no recombinant construct was used; also called transferrin receptor 1; CD71
Nature of the assay: immunoprecipitation with 3F3-FMA from HT-1080 cell lysate and mass spectrometry; staining lost after siRNA knockdown of TfR1. The protocol: The beads were used for mass spectrometry.
Trypsin digestion was performed overnight at 37° C. Supernatants were collected and dried down in a speed-vac, and peptides were dissolved in a solution containing 3% acetonitrile and 0.1% formic acid. Peptides were desalted with C18 disk-packed stage-tips. Desalted peptides were injected onto an EASY-Spray PepMap RSLC C18 50 cm×75 μm column (Thermo Scientific), which was coupled to the Orbitrap Fusion Tribrid mass spectrometer (Thermo Scientific). Peptides were eluted with a non-linear 110 min gradient of 5-30% buffer B (0.1% (v/v) formic acid, 100% acetonitrile) at a flow rate of 250 nl/min. The column temperature was maintained at a constant 50° C. during all experiments. Thermo Scientific™ Orbitrap Fusion™ Tribrid™ mass spectrometer was used for peptide MS/MS analysis. Survey scans of peptide precursors were performed from 400 to 1575 m/z at 120K FWHM resolution (at 200 m/z) with a 2×10⁵ ion count target and a maximum injection time of 50 ms. […] CID fragmentation was applied with 35% collision energy and resulting fragments were detected using the rapid scan rate in the ion trap. […]
The antigen of 3F3-FMA was identified using immunoprecipitation and mass spectrometry. […] Then magnetic beads were added and washed, and bead-immobilized proteins were analyzed by mass spectrometry. […]

The target of another assay is T2, mouse TfR1 protein (mouse, UniProt Q62351 1-763).
T2 construct: whole, on cells; Endogenous protein in mouse tissue sections
T2 sequence (Q62351 whole entry): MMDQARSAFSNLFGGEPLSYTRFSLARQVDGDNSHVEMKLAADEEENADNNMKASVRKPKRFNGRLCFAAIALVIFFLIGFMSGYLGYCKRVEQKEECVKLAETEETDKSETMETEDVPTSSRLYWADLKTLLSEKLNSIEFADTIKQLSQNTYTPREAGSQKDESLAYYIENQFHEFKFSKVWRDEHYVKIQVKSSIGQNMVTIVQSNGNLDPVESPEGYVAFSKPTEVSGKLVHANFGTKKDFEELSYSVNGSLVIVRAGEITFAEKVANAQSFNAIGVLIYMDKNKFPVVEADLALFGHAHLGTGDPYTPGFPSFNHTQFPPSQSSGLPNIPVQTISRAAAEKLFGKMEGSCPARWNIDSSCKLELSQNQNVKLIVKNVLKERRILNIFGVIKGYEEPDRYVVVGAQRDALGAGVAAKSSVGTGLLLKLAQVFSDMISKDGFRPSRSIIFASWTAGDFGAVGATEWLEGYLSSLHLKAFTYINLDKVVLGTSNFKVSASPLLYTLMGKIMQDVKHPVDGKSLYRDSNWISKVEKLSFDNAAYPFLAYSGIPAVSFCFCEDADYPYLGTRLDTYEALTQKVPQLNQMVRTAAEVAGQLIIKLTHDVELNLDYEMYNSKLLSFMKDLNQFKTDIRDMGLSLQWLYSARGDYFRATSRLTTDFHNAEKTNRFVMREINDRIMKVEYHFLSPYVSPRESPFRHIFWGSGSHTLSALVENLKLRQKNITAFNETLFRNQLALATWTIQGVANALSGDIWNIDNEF
Nature of the assay: immunofluorescence on normal mouse liver frozen tissue sections.

T1 sequence (P02786 whole entry): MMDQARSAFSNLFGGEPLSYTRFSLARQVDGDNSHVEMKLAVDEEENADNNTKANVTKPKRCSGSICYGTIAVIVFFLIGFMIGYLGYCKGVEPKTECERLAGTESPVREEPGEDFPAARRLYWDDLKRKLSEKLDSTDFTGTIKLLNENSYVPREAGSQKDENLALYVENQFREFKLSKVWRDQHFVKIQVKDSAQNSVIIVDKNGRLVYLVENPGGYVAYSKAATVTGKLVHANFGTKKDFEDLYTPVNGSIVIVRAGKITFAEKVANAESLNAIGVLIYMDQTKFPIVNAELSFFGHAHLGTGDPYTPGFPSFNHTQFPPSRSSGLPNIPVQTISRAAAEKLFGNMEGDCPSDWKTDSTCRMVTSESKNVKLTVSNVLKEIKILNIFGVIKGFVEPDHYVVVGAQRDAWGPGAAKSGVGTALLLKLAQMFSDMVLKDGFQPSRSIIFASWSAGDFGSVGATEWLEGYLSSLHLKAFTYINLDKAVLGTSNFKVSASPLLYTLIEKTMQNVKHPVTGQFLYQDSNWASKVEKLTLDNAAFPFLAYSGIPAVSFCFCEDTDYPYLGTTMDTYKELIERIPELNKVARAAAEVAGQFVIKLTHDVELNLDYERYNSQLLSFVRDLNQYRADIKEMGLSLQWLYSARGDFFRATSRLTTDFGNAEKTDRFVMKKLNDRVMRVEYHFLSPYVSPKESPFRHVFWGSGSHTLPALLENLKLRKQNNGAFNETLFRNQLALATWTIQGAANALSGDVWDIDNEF

B1: 3F3 anti-Ferroptotic Membrane Antibody (3F3-FMA) (antibody, V domains shown)
VH: EVLLQQSGTELVRPGALVKLSCKASGFNIQDLYIHWVKQRPEQGLEWIGWIDPETDNTIYDPKFQGKASITADTSSNTAYLQLSSLTSEDTAMYYCSTGLLQWYFDVWGAGTAVTVSS
VL: DIVMTQSPSSLAMSIGQKVTMRCKSSQSLLNSYNQKNCLAWYQQKPGQSPKLLLYFVSTRESGVPDRFIGSGSGTDFTLTISSVQAEDLADYFCQQHYSTPLTFGAGTKLELK
notes: the entries 1 and 2 should match these; also called mAb 3F3 FMA; clone FH3F3
As to B1, the binding result (in assay [1]; with mouse TfR1 protein) was “binds” each time.

(Values after patent US20230140200A1 (TRUSTEES OF COLUMBIA UNIVERSITY IN THE CITY OF NEW YORK, published 2023).)
